The text below walks through data of the domain aggregation screens of Martell et al. (2025).

The data set is described as follows: soluble fraction after stress (log2 fold change); higher = more stays soluble; pooled small domains, quantitative proteomics. Particulars: stress: pH 4. The procedure, abridged: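 Pooled custom libraries of small protein domains were stressed at pH 4 and then measured by high-throughput quantitative proteomics. The fold change in the amount of each domain that stays soluble after the acid stress serves as a measure of aggregation propensity. Fold changes are given on a log2 scale, and higher values mean more of the domain stayed soluble.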
As to “HMKTALDEAKDFLNGALSKGHRPASDVVDEAKEASISEKTLKRAKLAIGIITRKEGFGSEGKWVWELPAR”, the “soluble fraction (log2)” value came out at 0.0771.
“HMKTATAKIKATPFGWLRVRETPSLNGAEIARVNSGESYKILERGEGWIKIKVSDTVEGWVSEAYVELS”: the “soluble fraction (log2)” value is -0.236.
As to “HMKTEKYIQVISGTVNVRSGPGTSYAEIAKIDASQIYVVTAKEGEWLKISLANGTIGYVAGWLVKEVTG”, the “soluble fraction (log2)” value was -0.331.
“HMKTEVNITPGIIDWIERYVQTDKISSSMTEDFQHWKSGTKKPTFNQVEAFSKAINVPLGYFFLKTPPAE”: the “soluble fraction (log2)” value was -0.902.
With “HMKTFSFEILADTVKKQRKAKGMTQAELSEATGINRSMIGQMENMTFKPSIEQLEALSQALDFNVIDLYTE”, the “soluble fraction (log2)” value is -0.767.
As to “HMKTGHLPVTVIIDGRIISDNLYKTGLSNNWLADQLRKNSIKSSEDVFFAYLNPERKFIYQLRSNS”, the “soluble fraction (log2)” value is -0.098.
As for “HMKTGNIVMVNLGWKGKYYSIKMFFPQVSKPSRKDVQDQIEKIYPGGKLYTFVVSNYEPGEPMLHA”, the “soluble fraction (log2)” value is -0.164.
As for “HMKTITLDEAQEIALAEVDGKVTRAVEETDDGRSYYEFDIITNDQKHELEVDASSGKITKNEIDEDYVPS”, the “soluble fraction (log2)” value was -0.0471.
In the case of “HMKTITVEDEQAGKRLDKALAELFPHYSRSALEKLIKEGQVLVNKSFVKSKYSLKLGDEISLQFEQL”, the “soluble fraction (log2)” value came to 0.0205.
Regarding “HMKTKILAPIPGSIMVVDVKVGDTVKVGDRLVQLEAMKMENNITSEKAGKITAVLVTAGQKVLQNEVMIEL”, the “soluble fraction (log2)” value was -0.52.
For the sequence “HMKTLLSMNIKNLRKKKNMTLEELAEKVGTSKQTIQRYESGKISNIPSDKIELLAKYLDTTPAKLMGW”, the “soluble fraction (log2)” value is 0.187.
The result for “HMKTLNKRQQDIINLAREEGFVTVEHLSEYFKVTQQTIRRDLGYLSENLYLARTYGGAFFQS” reads -0.535.
Regarding “HMKTTKLEELDMQKEFILKNGKYGFGVYIGGKYIGLTDIGTVNSFKDSLQLPVVSLSDIDFKTFAEKF”, the “soluble fraction (log2)” value was -1.34.
Consider “HMKTYEILFDILSRESDYISGEKLAQELGISRTSIWKAIQHLEKEGVHIESVKNKGYKLLSGDLLIAEKI”, for which the “soluble fraction (log2)” value is -0.343.
“HMKTYGGDNSLHKFDEHHSWMVAKYGPVVKQTINGETKWLKVKKDLTLAQVKKMKLEDVLLPKSQT”: the “soluble fraction (log2)” value is 0.245.
For the sequence “HMKVDRLVSMILILLEQQRVGAQELADRFEVSVRTIYRDMEAINQAGIPVRSTSGVGGGFEIM”, the “soluble fraction (log2)” value was -0.314.
As for “HMKVFREERLQLILEKLIHEKKVVVSDLVKYFNVSPSLIRMDLAELEKRDLILRTHGGAILPD”, the “soluble fraction (log2)” value was -0.0668.
As for “HMKVKEYKLVDWISTFTKNEGYGISQKAAMLLAEFLGDDLSRIANEIEKLKLLVEKGTTINDVHIEENI”, the “soluble fraction (log2)” value is -0.721.
In the case of “HMKVLFLESIEGSASMGEIKDVANGYARNFLFPNGFAVPATPKNLKNVEELQAKELEIQTERDNWAA”, the “soluble fraction (log2)” value was -0.713.
With “HMKVSDLIGMLGRVTGELAPTGIVLVGNKTWTAISEDASVIASGEQVQVRSVAGLILTVSHQVD”, the “soluble fraction (log2)” value is -0.954.
Take “HMKVSVPDIMDNSSLRQAEAKLRALGFRVTEPEYISGEKDWVYSVTYKGRTLNAGDKVPHEALLTLHVGNG”: the “soluble fraction (log2)” value is no less than 0.43.
As to “HMKVTADVVVADRLKAWIISNNLKPGDRLPTEQKLSEELGVARHTLREGIKRLSQLGIIGSRTGSGMYVKN”, the “soluble fraction (log2)” value came out at 0.158.
As to “HMKWIEILKSKDGNYALLQDEKDTQFVVASGYNPDAAEDQKWGHGSYFIYWNNKENKAEMLMNAIDLFRYR”, the “soluble fraction (log2)” value was -1.34.
The result for “HMKYEFEFPYWSNKEAKHMIVTINYPNGTRATASIQDNDGSNPDYKRIMEEFGEEQIDANTEEGLKRR” reads -0.816.
Regarding “HMKYEGEDEYYASLVTEKIAAIGTVTEESEDAIKEARAAYDALTSAQKKLVTNYDVLDEAEK”, the “soluble fraction (log2)” value came to 0.302.
Next, “HMKYGPSTVATLKVARLGEMGAFLDAETGDTSDDILLHKTQQTAPVKVGDEVEVFLYLDPKRRLTASMRV”: -1.07.
On to “HMKYGPSTVAVLTVVRESEMGAFLDAETGRTNDDILLHKTQQTEPVHIGDQVKVFLYLDPKHRLTASMRVP”, for which the “soluble fraction (log2)” value is -1.24.
Regarding “HMKYNETEFKNLVAKLYNGEIEIVGKFTGLSYPILVKDKYGIMLSQKANLILNYRPTINIALNKTEYAMN”, the “soluble fraction (log2)” value was -0.4.
Regarding “HMKYSELLLEIILQSKEHPTAEQIFIEAKKRNPKIVQATVYNNLKNLLAQGRVIRISNPGQPDRYDNT”, the “soluble fraction (log2)” value is 0.0505.
The result for “HMKYVDYYATLGVARDADLATITKAYRKLARQTHPDLNQGADNEARFKAAAEAYATLKHPEKRAAYDELGQ” reads 0.117; that for “HMKYWTISDLYSKLEEDQVELGAFSEDSNKVTVLDRQGYEHVIKILSSDVPALTELFRKKKVRFAVAG”, 0.0959; that for “HMKYYIYQGVGASGELTKIAEVTDQKTYTVTGLQAKTTYRFAVSSYNGLRESTKSNIVTVTT”, 0.22.
For “HMLAAAVVVYATDKVNVRAEASETADVIGQLEAGSQTTRLEDKDGWSRIDYSNGTQGYMKSEFLSTEAPT”, the “soluble fraction (log2)” value is -0.622.
The result for “HMLADEPTGALDSKTSVQIMALLTEIAQDRLVIMVTHNPELADEYATRIVNLRDGVISDDSDPFNP” reads -0.289; that for “HMLAEEAFNKQAATAGYVYRDGSYHPAASVAQYDAMPRNYRTNTMAQELSRSQVESQLQQSQ”, -0.104; that for “HMLAGKTYEVQTESGGKWTLVASYNVKSQAIQQAQALLESHKYSGVKVIAESDRKGEEVIFNEQSEVT”, 0.104.
Turning to “HMLALKSGQVVVGTIIRRLDNTTAMLRIGNQLFETSFAKGLPKSNHILLRYDAMQGNRFIFTMVE”, the “soluble fraction (log2)” value is -0.063.
Turning to “HMLANLNKELQNDAALLKQKAQGNSNLLAKIQDVEQQMKQVNTSSASDEAKAKELQTLQRKLTAYKKALA”, the “soluble fraction (log2)” value was -0.0638.
With “HMLAVSVDKDGKVYIQDSETAVDAVTAKLRAISGNNSEIRIFVRGDADVNYGRIMEIMGVINAAGFRKVAL”, the “soluble fraction (log2)” value is -0.78.
For “HMLDEIAGQKVRVLEEINNSEGTGKVMYRGVEWMARSVDDAVMAKDSIVTVQSISGVKLMVT”, the “soluble fraction (log2)” value is -0.498.
The result for “HMLDEKAVRQYLLNTLENSEIKMDRQAIDLFLRLTDLDLSKMMRELQKILLYGQEQEVITVKEIEQ” reads -1.17; that for “HMLDGFEVGMTVMKKSGTEIGFTGWPSFADKDELPIIERIDTSDSTLLLKFKDMSWWIKASLVEPS”, -0.396; that for “HMLDLPEISARIMEVFETKDRATISELSKLTGTNINTIKKHLSSLVENNYLIKHGKTRGAWYTKST”, -0.271.
Regarding “HMLDLVSIGKRIKAERQKNGLTQEALAERIEVSAHYVYELERGLKAMSVPILLRMSEVLHTSTDYLLF”, the “soluble fraction (log2)” value is -0.48.
As to “HMLDNHPQSKKIRALWLEMAAAGVVRDSSEQALALWVKRETGISALRWLSNEQASSVIEKLKKWQRRAAG”, the “soluble fraction (log2)” value is -0.0161.
As to “HMLDPKVFVGKAGINEGIAKLLLQAFDKADLVKVRFTAERDVMETQMQELARLTGSEVIGNVGRTATF”, the “soluble fraction (log2)” value was determined as 0.168.
Next, “HMLEAMDSDEAAKVIEQIVNERADFVRSKGMGAIGPLMGPVMGALRGKVDGKQANELLTAAIKKLL”: 0.177; “HMLEASVYTAEKSGDRLDAFLAEQAGITRSYAQKLIEGGQVTLGGVVPKKNYKLSAGEQVELILPEN”: -0.00206.
Take “HMLEKVLDNHIHKLRLQHKISQQELADAIGVSRKTISTVETGRFTPSVVIALKIAAHFSVSVEQVFTL”: the “soluble fraction (log2)” value was -0.187.
“HMLEPEVLDLIGQVKSVHHFSVTQSHQLEKLVRHAHTLGFEIAELKSLLASSPNAKSLLSSLDQKLEPLRM”: the “soluble fraction (log2)” value was 0.0896.
The result for “HMLEQEQFESKLLKAINNINETQRIAFLMHRIDGKKYAEIASELNISVKAVEKRIHLALIELKKEIENF” reads -0.396.
The result for “HMLEQISDINILSGYAKEVIAENPKTVSDYLSGKAAAFQALVGQVMKKTGGRGNPVIIQEILKRLIHKK” reads -0.182; that for “HMLERKPVLVASRDLPALAVIGKDDLSVELLRTAPVGSYDRPEALLGKRVWVAVPAGSILSAATLEP”, -0.0428.
Consider “HMLERPLKLKSHYVSTIYEKVAVQYSEGEEKKSVMGTLIEVNQDTIVLDDRGTIIEIPFKSITRAKTVF”, for which the “soluble fraction (log2)” value was -0.364.
In the case of “HMLETLVYPNPTTDKILLSSPVDYHLFSLKGELVLEGRGSSIEVSQLSKGVYFLNTKTQTFKIIK”, the “soluble fraction (log2)” value is -0.156.
Regarding “HMLGARSLNEAVARNLPQILAKYQLIHIAGKNGFNPELQGRGYVQYEYVDTELKDLMALADIVVSR”, the “soluble fraction (log2)” value is -0.0512.
As for “HMLGERIKQIRKQKKMTQTDVATGIITKSMLSMIENGKATPSLPALQAIARRLQVTVEELML”, the “soluble fraction (log2)” value is 0.0227.
The result for “HMLGFELVGIRGNNPESTIIILERDDYRLVEQGQNINSSVIFSHIDGSRAYFFDGQTYTFLDI” reads -2.77; that for “HMLGITEGSLVRVIRSPNFGKIGTVAELPAELRMMESETMVRIAIVEIEGTNFEIPRSNLEVLET”, -1.28.
As to “HMLGKEVVRAYNISYAIDDKGSLQGDLTAALTGLIPLSKPPVLDQRNRSLYVTATPEQHKDVAALLAKL”, the “soluble fraction (log2)” value was -0.364.
For the sequence “HMLGSGSKEQQLVILNNILERQVQAFNLQGGQEYPMVTLKNFYNTLSKMIENAGLKNVENYFVNPDVGKQM”, the “soluble fraction (log2)” value is -0.0872.
Turning to “HMLHMKAALGELMSIPGMRSELAGTLFDRGYTSLAQLRAATLDDLERVNGLERADARRIHDFLRKS”, the “soluble fraction (log2)” value was -0.066.
Regarding “HMLHQSLVVNAASGRVTVSLDIVPDEDNPYAVLRATDDSDEPLAQVRVAPSFKLNRASALAWIESQFARP”, the “soluble fraction (log2)” value was -0.128.
As for “HMLHSEDATVVRQAIPLLERHVDAATVAVARRNLAQLEQFGRYPRRNQALGRISNPAENAYLRAER”, the “soluble fraction (log2)” value is -0.0503.
Consider “HMLIDQYPYSIIYRLIPHGRSNAVPAAQIVGLTKLDERSIRIYVEAMRREGHIIASSSKGYYFPASIEE”, for which the “soluble fraction (log2)” value was -0.589.
Consider “HMLIGLNETESLVLDALIANPMRIDQVSAMLKKDVATTLKFLGGLSVRGLVETLFGGRFAPTKIALHARS”, for which the “soluble fraction (log2)” value was -0.247.
Regarding “HMLIIMNSDATKEQVDHVTSRVREAGFKDHIMPGAGKVAIGVTGTGDYDQTKLHLEILPGVFKIMRITK”, the “soluble fraction (log2)” value was -0.0509.
Take “HMLIPADETEAKVLSVLSREPLHVDEIRNQAGLPIEKISATLALMELKGMVRQVGGMNYVSV”: the “soluble fraction (log2)” value was -0.48.
With “HMLKDKLSDKDFDFYKNKIQIQLQGNPTELKELVRRFSSTEEQQILKTIDYMLDNGFLRIDEDNMIYWK”, the “soluble fraction (log2)” value was -1.8.
